The results in this text go back to the RNAGym collection of RNA variant scans (doi:10.1073/pnas.2313332121).

To fix the notation:
B1: TPR t1 (parent)
chain: GACCAAUCUGCCCUCAGAGCUCGAGAACAUCUUCGGAUGCAGAGGAGGCAGGCUUCGGUGGCGCGAUAGCGCCAACGUCCUCAACCUCCAAUGCAUCCCACCACAUGAUGAUGCCUGAAGAGCCUUGGUUUUUUG

The variants in this data set derive from B1. Briefly: polymerase ribozyme fitness, log enrichment relative to wild type (log ratio); higher = more active; in vitro selection for triplet polymerase activity. Summed up: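 Genotype fitness is the logarithm of its enrichment divided by wild-type enrichment, using inverse-variance-weighted averages of replicates. That logarithm is base 2. Enrichment was measured by Illumina sequencing of input and output libraries from one triplicate in vitro selection round, with frozen incubation at −7 °C, on PCR-built, transcribed mutant libraries of each subunit of a heterodimeric triplet polymerase ribozyme, retaining genotypes with ≥10 input reads and ≥1 read per output.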
In the case of C12A G107C A119C G120A, the “polymerase ribozyme fitness (log ratio)” value was -4.18.
With C12A G48U the figure was -2.61; with C11U A100C, -1.31.
Under C11G G110U U125A stands -0.479; under C12A G77U C82U, -1.87; under C11U A37U G45A, -1.81.
With C12A A41U G45A C64A U87C A100C U116C the figure was -6.47; with C11U C53U C72U C82G C123G, -0.853; with C11U A84G C89A, -4.
As for C11U C115U, the “polymerase ribozyme fitness (log ratio)” value was -1.61.
With C12A G110C the figure was -3.17; with C11U G113C, -2.55; with C11U C70A U129A, -3.59.
Under C11U U106A G110C C123U stands -2.46; under C11U C15U A16C G42A, -2.92.
For C11U U30A G61U, the “polymerase ribozyme fitness (log ratio)” value is -4.45.
Under C11U C62G C89U A121C C124G U125A stands -0.483; under C12A A26G, -1.73; under C11G G42C C49U G117C C124G, -4.14.
On to C11U A43U, for which the “polymerase ribozyme fitness (log ratio)” value is -1.62.
On to C12A G117A, for which the “polymerase ribozyme fitness (log ratio)” value was -1.29.
Under C11U C49A G107U G120A stands -4.45.
In the case of C11U U109G, the “polymerase ribozyme fitness (log ratio)” value is -5.84.
With C12A G60A the figure was -1.28; with C11U C13U G44C C86G U116C U132C, -1.99; with C11G G122A, 0.352.
With C12A A29U G93U the figure was -2.79; with C11U A41G C56G C124A, 1.04; with C11G G39A G60C, -0.748.
With C11U G120C the figure was 1.11.
Regarding C11U G120A, the “polymerase ribozyme fitness (log ratio)” value was 0.0588.
Under C11U G120U stands -0.185; under C11U C28G A37G G120U U130A, -2.33.
Under C11U C56A A91U U96C stands -3.51; under C11G G23A C76U, -6.14; under C11U C64U U78C, -0.654.
With C11U G17U G48A C114G, the “polymerase ribozyme fitness (log ratio)” value is -6.05.
On to C12A C89G G93A, for which the “polymerase ribozyme fitness (log ratio)” value was -2.86.
With C11U G42C G63C U130G the figure was -3.61; with C12G C20U C76A, -1.37; with C12G A29U G39U U55G, -2.45.
With C11G U32A C34U C115G the figure was -8.31; with C11U G71C, -0.699; with C12A A111G, 0.3.
Under C12A C15U U21A G39A stands -1.06; under C11U A24G G47U G77U U116C, -7.91.
As to C11U U32G U38G U54C C99G G120C, the “polymerase ribozyme fitness (log ratio)” value was -6.93.
With C12G A16U G45U C89G U129C the figure was -4.69.
Under C11U G69U A121G stands 2.01.
With C11G U21G G93A the figure was -2.28; with C12A G42A C88U C114A G120A, -2.22; with C11G G42C A68U C72A A91U G113C, -8.47.
Regarding C12G A46C C101U U132C, the “polymerase ribozyme fitness (log ratio)” value was -1.45.
With C11G G42C A95U the figure was -1.3; with C12A C94U, -0.961.
Turning to C11G G47U G63A C79A, the “polymerase ribozyme fitness (log ratio)” value was -3.91.
Under C12A U55G C72U U92G stands -2.88; under C11G U130A, 0.0419.
With C11U C34U the figure was -3.97; with C12A C114U G135A, -3.81.
Under C12A C64A stands -5.04; under C11G G63A A111G, -0.361.
In the case of C12A G19U C73A G77C, the “polymerase ribozyme fitness (log ratio)” value is -5.03.
Under C11U G47A U87A G93U G113C stands -4.49; under C12A U33C A103C G113U C114G G127U, -6.43; under C12A U21A C53A G71U C98U, -4.86.
With C11U U55C A121G the figure was 1.39.
Under C12G C20G C79U C82U A91U G107C G117A stands -4; under C12A C28U G63C, -2.37; under C11U C99U, -3.13.
On to C11U C34G C53A G71A, for which the “polymerase ribozyme fitness (log ratio)” value is -6.35.
Under C12A A84U U130A stands -1.77; under C11G G52U A118G C124G, 0.453.
Under C12G C20U C72U G117U stands -2.78; under C11G U33G A95G C101U G120C, -5.25.
On to C11G G61A C64U G120U, for which the “polymerase ribozyme fitness (log ratio)” value is -0.77.
With C12A G39C G47A A66U the figure was -3.14.
Under C11U C15A A16C U33G C49G G60A G65A C79A A90C U109A stands -8.01.
Under C11U C12G C15U C28G U38A C56U G69C G120A stands -7.02; under C11U C15A G39C G61C C114A, -5.39; under C12A C70A G127U, -2.31.
On to C12A G51U G77A, for which the “polymerase ribozyme fitness (log ratio)” value is -1.98.
Under C12A A37U C114G stands -3.99.
With C12A G45C G63U the figure was -2.35.
With C12G C13U the figure was -0.223; with C12A A121U, 1.74.
For C11G G117U G127U, the “polymerase ribozyme fitness (log ratio)” value was -3.47.
For the variant C11U A50U C70U G113A, the “polymerase ribozyme fitness (log ratio)” value is -2.63.
With C12A A84U A95C G135C, the “polymerase ribozyme fitness (log ratio)” value was -1.09.
Under C12A C20A G61U G120A stands -1.21; under C11U G51U, -3.04.
Under C11G G52A U54A C98A stands -5.44; under C12A A27G G93A, -5.16; under C12A U33A G48U A74C C94U, -5.8.
For the variant C12A A74G, the “polymerase ribozyme fitness (log ratio)” value is -0.0689.
With C12A A74U the figure was -0.922; with C12A C86A U112A, 0.277; with C11U U131G, -1.44.
Under C11G G44C A66G A83G C114A U133A stands -5.39.
In the case of C11U C85G, the “polymerase ribozyme fitness (log ratio)” value was -2.37.
Under C11U C94A stands -2.35.
Under C11G G60A C70U stands -0.917.
With C12A C28G C34A C80U C123A the figure was -6.06.
With C11G U38A G45U A50C, the “polymerase ribozyme fitness (log ratio)” value was -2.51.
With C12A C28U G60A G122A U133G the figure was -2.67.
As to C11G U32G U125A U126G, the “polymerase ribozyme fitness (log ratio)” value was -6.54.
With C12A C53U C56G G135A the figure was -2.18; with C11G G52A C56A, -0.203; with C12A C15A C72U C79A C88A, -5.1.
With C12A C40U C99U the figure was -4.15; with C12G A43G, -1.17.
Under C12G A27G stands -1.67; under C11U G45A C89G A121G, 0.687; under C11U C80U G113C, -3.93.
As for C11U G42C A75G U112C A121U G127A, the “polymerase ribozyme fitness (log ratio)” value was -0.694.
Turning to C11U A37C G45U G58A, the “polymerase ribozyme fitness (log ratio)” value is -2.72.
With C12A C40U U59A A111G C124A the figure was -0.777; with C11U C49A, -1.28.
Under C12A A46U stands -1.75; under C12A C40U C89A U125A U130G, -5.
With C11U A18U G69U the figure was -0.642; with C11G G61C U78C U126A, -4.7.
With C12A C62A C72U C98U U126C, the “polymerase ribozyme fitness (log ratio)” value is -2.97.
Under C12G A26C G60U stands -3.25; under C12G C15A C22U A26G U116C A118U C124G, -2.97.
Consider C11G G48U G61A C73A A90G, for which the “polymerase ribozyme fitness (log ratio)” value is -2.19.
On to C11U G61U C76U A111C, for which the “polymerase ribozyme fitness (log ratio)” value was -5.8.
With C11U A27U G71U C101G C104U A111C the figure was -6.17; with C11U A16C G63A, -3.2; with C12A A18U C56U C79U C115U A118C U131C, -3.23.
Under C11U A50G stands -0.405.
Under C11U C12U C15U C53A C80U C88U C104U A111U A118G stands -6.72; under C11U A43G C72G, -2.54; under C11U A84G C89U G93U, -2.61.
As to C11U C22U, the “polymerase ribozyme fitness (log ratio)” value was -4.2.
For C11U C22A, the “polymerase ribozyme fitness (log ratio)” value was -4.84.
Under C11U G48A U59A G69U C88G G135U stands -3.32; under C12A C64U C72U, -1.01.
With C11U G47A G71C C86U, the “polymerase ribozyme fitness (log ratio)” value was -0.929.
With C12A G48U C98U the figure was -2.11; with C12A A37C A50G C53A, -0.87; with C12A C85G, -2.79.
For the variant C12A A27U G63A, the “polymerase ribozyme fitness (log ratio)” value is -5.2.
Under C11U C13U C53U G63U U92G C104U U112A stands -4.22.
With C12A A74C G93A C124U U132A the figure was -1.34; with C12A G45C, -1.32.
On to C11U C49A U55C G60A U87A C88G A95C A121U, for which the “polymerase ribozyme fitness (log ratio)” value was -2.74.
Under C11U C13U C22G C82A stands -4.12; under C12A G19U G42U U92A U112C U129G, -3.59; under C12A G61U A66C U78C C80A G107U C114U G127C, -6.6.
With C11U C15A C101G the figure was -3.87.
With C12A G19A C22G A27C U30A C40A A46C C56A C82A U92G U109G the figure was -8.5.
Turning to C11U C40G G61C A119U, the “polymerase ribozyme fitness (log ratio)” value is -2.64.
With C12A G61C U78C C80U C82A A121C the figure was -7.45; with C11U C72A U78A C97A, -5.56; with C11G G113A, -0.119.
With C12G C13A G45C C56U the figure was -1.27; with C11U C70U C101A G128C, -4.09; with C11U G36U G117A C124U, -5.7.
Consider C12A C40A C86A C101U U106G, for which the “polymerase ribozyme fitness (log ratio)” value was -5.32.
Under C11U G71A C98U A105U G110U G122U C124A stands -7.92.
Under C11U C40G C49A U55G G61A stands -1.51; under C12G A26G C98U, -3.76; under C11G G36A, 0.396.
With C12A G47C C70U the figure was -0.753; with C12G C15U C56U G77C A83C C88A U106A U132A, -3.55.
Consider C12A C13A C72U U92C G117A A121U C123U, for which the “polymerase ribozyme fitness (log ratio)” value was -1.56.
